# Experimental data taken from the RNAGym collection of RNA variant scans (doi:10.1073/pnas.2313332121).
# This sample holds only a part of the variants without activity.
# B1: TPR 5TU (parent)
# chain: GGAUCUUCUCGAUCUAACAAAAAAGACAAAUCUGCCACAAAGCUUGAGAGCAUCUUCGGAUGCAGAGGCGGCAGCCUUCGGUGGCGCGAUAGCGCCAACGUUCUCAACUAUGACACGCAAAACGCGUGCUCCGUUGAAUGGAGUUUAUCAUG
# Variants of: B1
# Test: polymerase ribozyme fitness, log enrichment relative to wild type (log ratio); higher = more active; in vitro selection for triplet polymerase activity
# Method in brief: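 Fitness measures genotype enrichment against wild-type enrichment on a logarithmic scale, with inverse-variance-weighted averaging of replicates. The logarithm is base 2, and genotypes were kept only with ≥10 input reads and ≥1 read per output in Illumina sequencing. The sequenced libraries came from one triplicate in vitro selection round, including frozen incubation at −7 °C, of PCR-built, transcribed mutant libraries of each subunit of a heterodimeric triplet polymerase ribozyme.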
row,Variant,polymerase ribozyme fitness (log ratio)
1,C43A G50A C72U G84U U90A C103A G141U,≤ -4.2
2,C43A A52G C69U A91U C96U A106U,≤ -4.2
3,U45A A52U U56A C76U,≤ -4.2
4,U45A A121G C131G G140U,≤ -4.2
5,U45A G84A A115C,-3.88
6,G42C G94C U111C,≤ -4.2
7,U45A A142G,-2.94
8,U44A U61G A66C A91U C132U G141C,≤ -4.2
9,U45A G46A U55C A66G U77G U82A C103G U135C U145C,≤ -4.2
10,C43G G94A,-3.81
11,U44A G83U,-3.94
12,C43U G59C U77A U111C,≤ -4.2
13,U44A C87A U90C C93G C105G A122G,≤ -4.2
14,U45A G50U G83U C87U C103U C105A,≤ -4.2
15,G42C U56A G84U A121C,≤ -4.2
16,G42C G86U,≤ -4.2
17,G42C G86C,≤ -4.2
18,C43A G58C G81C C95U C96A A122U G126C G143C,≤ -4.2
19,U44A C72U A73G G86U A138C,≤ -4.2
20,U44G U45G C72G,≤ -4.2
21,C43G C69A,≤ -4.2

row,Variant,polymerase ribozyme fitness (log ratio)
1,U45A C72A G86U C99U,≤ -4.2
2,U44G U135A,-3.83
3,U44A C87A G126U,≤ -4.2
4,G42C U55A G70C C96U,≤ -4.2
5,C43A C96A U101G A150U,-4.16
6,G42U U56A C75G A91U G126A U144A,≤ -4.2
7,G42C U90C U109A,≤ -4.2
8,U45A G65C A73G G84A A142G,≤ -4.2
9,U45A A60G G94A C95G U144C U151G,≤ -4.2
10,C43U C51A C85U A107U U135C,≤ -4.2
11,G42C U44A C54G A91U C99U G143C U145C,≤ -4.2
12,U44G C75U A89G,≤ -4.2
13,C43U G46C G83U,≤ -4.2
14,U45C U77G C79G,≤ -4.2
15,C43G G83U A97U U104C C116U A137C,≤ -4.2
16,G42U A106C,-4.17
17,C43G C57A G59C C72A C79A A138G U145A,≤ -4.2
18,U45A C72U,≤ -4.2
19,U44A A91G U135C U144C,≤ -4.2
20,G42U U45A U56A G83A A121U,≤ -4.2
21,C43G G50C C85A C96A C108U G124A,≤ -4.2

row,Variant,polymerase ribozyme fitness (log ratio)
1,C43U A138C,≤ -4.2
2,U44G G67U A91U A115U A120C,≤ -4.2
3,C43U G68A G86U,≤ -4.2
4,C43A A49U G74A G86C C93A C105U U144A,≤ -4.2
5,U44G G59A A60C G83A C95G C103G,≤ -4.2
6,C43U C103G,≤ -4.2
7,U45A G58A,-1.48
8,U45A G58C,-2.28
9,G42C U44G A106G,≤ -4.2
10,U45A U77G G83C U146A,≤ -4.2
11,C43U A49C C96A A107C A113U,≤ -4.2
12,U44G U134C,-4.1
13,C43A U53G A64U C95U A110U A150C,≤ -4.2
14,U44G U45G C54U C87A,≤ -4.2
15,U45A G58A G59C A60G G133A,≤ -4.2
16,U44A U82A,-4.18
17,U44G G143C,≤ -4.2
18,U45A U55G U56G C87U G92C,-3.98
19,U44G A73U C85U U109G,≤ -4.2
20,G42U U44A C54A G88U,≤ -4.2
21,U45C C57G G59U A66U G94A,≤ -4.2

row,Variant,polymerase ribozyme fitness (log ratio)
1,U45G A66C C76A G86U C96U,≤ -4.2
2,U45C A49C G70C G83C A137C U144C,≤ -4.2
3,U45C G70C A91G C99U G136C,≤ -4.2
4,C43G G84A C95A A106U C118G G143U,≤ -4.2
5,U44A A47U C72G G86C A91C,≤ -4.2
6,C43U G81C G88A G133C,≤ -4.2
7,U44A C57A U82C C95A,≤ -4.2
8,U45G A52U,-3.15
9,U45A G92A U127C G128A U130G,-4.06
10,G42C U45A A52C U77G C85A C116G,≤ -4.2
11,U44A U53A C79G C85G A119G U135G,≤ -4.2
12,C43U G58A U90C C132A G143U,≤ -4.2
13,U45C G48C C99A G143A U148C,≤ -4.2
14,C43U C75A C79U G86U C87U G117U A150C,≤ -4.2
15,C43U A52C C57U G83A A89C,≤ -4.2
16,U45A A73G G83C C85U,≤ -4.2
17,U45A A49C G84A,≤ -4.2
18,U45A U55A U61A C63A U77A C131A A150G U151A,≤ -4.2
19,U44A G50U G59A C85A C99G G126U,≤ -4.2
20,C43U U45A C63U G81A C95G U111A,≤ -4.2
21,U44G G58C C87G,≤ -4.2
